In this test the target is Manduca sexta CAD repeat 12 (CR12) fragment. Put plainly: ELISA. To be noted: plates coated with 0.5 μg of CR12, read off a plot.

“Cry1Ab activated toxin (from UniProt P0A370) G439D”: the response (Absorbance 490 nm) is, setting by setting: (25 nM activated toxin mixed with PxHsp90 at a 1:30 ratio (toxin to chaperone), parent measured without PxHsp90, parent: est. 1.2) 0.58; (25 nM activated toxin, no PxHsp90, parent: est. 1.2) 0.44; (50 nM activated toxin mixed with PxHsp90 at a 1:30 ratio (toxin to chaperone), parent measured without PxHsp90, parent: est. 1.6) 0.77; (50 nM activated toxin, no PxHsp90, parent: est. 1.6) 0.48; (100 nM activated toxin mixed with PxHsp90 at a 1:30 ratio (toxin to chaperone), parent measured without PxHsp90, parent: est. 1.7) 1.1; (100 nM activated toxin, no PxHsp90, parent: est. 1.7) 0.66.
With “Cry1Ab protoxin (from UniProt P0A370) G439D”, the response (Absorbance 490 nm) was 0.82 (25 nM protoxin mixed with PxHsp90 at a 1:30 ratio (protoxin to chaperone), parent measured without PxHsp90, parent: est. …); 0.44 (25 nM protoxin, no PxHsp90, parent: est. 0.86); 1.2 (50 nM protoxin mixed with PxHsp90 at a 1:30 ratio (protoxin to chaperone), parent measured without PxHsp90, parent: est. …); 0.47 (50 nM protoxin, no PxHsp90, parent: est. 0.95); 1.6 (100 nM protoxin mixed with PxHsp90 at a 1:30 ratio (protoxin to chaperone), parent measured without PxHsp90, parent: est. …); 0.52 (100 nM protoxin, no PxHsp90, parent: est. 1.2).

(Values after publication PMC6879724.)
